Results on 73 substances are retold here after patent US20050118674A1, “Engineering of Controlled Deamidation Rates in Peptides, Proteins, and Similar Structures” (priority 2003, published 2005).

A short description of the series: First-order nonenzymatic deamidation of pentapeptides in Tris buffer. The class given is physicochemical. The note with it: 0.15 M Tris HCl; for First-Order Deamidation Halftimes of GlyXxxAsnYyyGly: pH 7.4, 37.0° C., Asn pentapeptides; for First-Order Deamidation Halftimes of GlyXxxGlnYyyGly: pH 7.4, 37.0 ° C., Gln pentapeptides, 52 values measured, rest derived from surface fitting. The procedure, abridged:
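Pentapeptides containing Asn or Gln in varied flanking sequences incubated at 37° C., pH 7.4, 0.15 M Tris buffer; first-order deamidation rates measured. Some Asn values estimated from remaining data; many Gln values derived from surface fitting rather than measured.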

In the case of “GlyLysAsnTrpGly (GKNWG; printed: GlyLysAsnTrpGly)”, the “First-Order Deamidation Halftimes of GlyXxxAsnYyyGly” value was 98.1 days.
For the substance “GlyLysAsnTyrGly (GKNYG; printed: GlyLysAsnTyrGly)”, the “First-Order Deamidation Halftimes of GlyXxxAsnYyyGly” value is 96.7 days.
The same measure, in the same setting: the value for “GlyLysAsnValGly (GKNVG; printed: GlyLysAsnValGly)” was 246 days.
Regarding “GlyLysGlnAlaGly (GKQAG; printed: GlyLysGlnAlaGly)”, the “First-Order Deamidation Halftimes of GlyXxxGlnYyyGly” value worked out at 4300 days.
With “GlyLysGlnArgGly (GKQRG; printed: GlyLysGlnArgGly)”, the “First-Order Deamidation Halftimes of GlyXxxGlnYyyGly” value is on record as 2300 days.
On the same count and under the same terms, then “GlyLysGlnAspGly (GKQDG; printed: GlyLysGlnAspGly)”, with 5900 days; and “GlyLysGlnCysGly (GKQCG; printed: GlyLysGlnCysGly)”, with 1000 days.
On the same count and under the same terms, the value for “GlyLysGlnGluGly (GKQEG; printed: GlyLysGlnGluGly)” was 5400 days.
Same read-out and setting: the value for “GlyLysGlnGlyGly (GKQGG; printed: GlyLysGlnGlyGly)” was 650 days; that for “GlyLysGlnHisGly (GKQHG; printed: GlyLysGlnHisGly)” was 6100 days.
For the substance “GlyLysGlnIleGly (GKQIG; printed: GlyLysGlnIleGly)”, the “First-Order Deamidation Halftimes of GlyXxxGlnYyyGly” value worked out at 5400 days.
The same measure, in the same setting: then “GlyLysGlnLeuGly (GKQLG; printed: GlyLysGlnLeuGly)”, with 5300 days; and “GlyLysGlnLysGly (GKQKG; printed: GlyLysGlnLysGly)”, with 4000 days.
In the case of “GlyLysGlnMetGly (GKQMG; printed: GlyLysGlnMetGly)”, the “First-Order Deamidation Halftimes of GlyXxxGlnYyyGly” value is reported as 4000 days.
On the same count and under the same terms, the value for “GlyLysGlnPheGly (GKQFG; printed: GlyLysGlnPheGly)” was 7000 days.
On the same count and under the same terms, the value for “GlyLysGlnProGly (GKQPG; printed: GlyLysGlnProGly)” was 7700 days; that for “GlyLysGlnSerGly (GKQSG; printed: GlyLysGlnSerGly)” was 4200 days; that for “GlyLysGlnThrGly (GKQTG; printed: GlyLysGlnThrGly)” was 4100 days.
In the case of “GlyLysGlnTrpGly (GKQWG; printed: GlyLysGlnTrpGly)”, the “First-Order Deamidation Halftimes of GlyXxxGlnYyyGly” value was determined as 10000 days.
Same read-out and setting: the value for “GlyLysGlnTyrGly (GKQYG; printed: GlyLysGlnTyrGly)” was 8800 days; that for “GlyLysGlnValGly (GKQVG; printed: GlyLysGlnValGly)” was 5700 days.
In the case of “GlyMetAsnAlaGly (GMNAG; printed: GlyMetAsnAlaGly)”, the “First-Order Deamidation Halftimes of GlyXxxAsnYyyGly” value turned out to be 22.1 days.
Same read-out and setting: the value for GlyMetAsnAmCysGly was 33.8 days; that for “GlyMetAsnArgGly (GMNRG; printed: GlyMetAsnArgGly)” was 58.8 days.
Same read-out and setting: then “GlyMetAsnAspGly (GMNDG; printed: GlyMetAsnAspGly)”, with 26.4 days; and “GlyMetAsnCysGly (GMNCG; printed: GlyMetAsnCysGly)”, with 49.6 days.
As to “GlyMetAsnGluGly (GMNEG; printed: GlyMetAsnGluGly)”, the “First-Order Deamidation Halftimes of GlyXxxAsnYyyGly” value is given as 72.4 days.
“GlyMetAsnGlyGly (GMNGG; printed: GlyMetAsnGlyGly)”: the “First-Order Deamidation Halftimes of GlyXxxAsnYyyGly” value is listed as 1.04 days.
Still for that read-out and setting: then “GlyMetAsnHisGly (GMNHG; printed: GlyMetAsnHisGly)”, with 10.2 days.
As for “GlyMetAsnIleGly (GMNIG; printed: GlyMetAsnIleGly)”, the “First-Order Deamidation Halftimes of GlyXxxAsnYyyGly” value is given as 275 days.
Turning to “GlyMetAsnLeuGly (GMNLG; printed: GlyMetAsnLeuGly)”, the “First-Order Deamidation Halftimes of GlyXxxAsnYyyGly” value was 113 days.
Same read-out and setting: then “GlyMetAsnLysGly (GMNKG; printed: GlyMetAsnLysGly)”, with 60.4 days; and “GlyMetAsnMetGly (GMNMG; printed: GlyMetAsnMetGly)”, with 56.9 days; and “GlyMetAsnPheGly (GMNFG; printed: GlyMetAsnPheGly)”, with 61.9 days.
The same measure, in the same setting: then “GlyMetAsnProGly (GMNPG; printed: GlyMetAsnProGly)”, with 9300 days; and “GlyMetAsnSerGly (GMNSG; printed: GlyMetAsnSerGly)”, with 15.2 days.
On the same count and under the same terms, the value for “GlyMetAsnThrGly (GMNTG; printed: GlyMetAsnThrGly)” was 43.6 days.
As for “GlyMetAsnTrpGly (GMNWG; printed: GlyMetAsnTrpGly)”, the “First-Order Deamidation Halftimes of GlyXxxAsnYyyGly” value is listed as 92.7 days.
Still for that read-out and setting: the value for “GlyMetAsnTyrGly (GMNYG; printed: GlyMetAsnTyrGly)” was 74.0 days; that for “GlyMetAsnValGly (GMNVG; printed: GlyMetAsnValGly)” was 211 days.
For “GlyMetGlnAlaGly (GMQAG; printed: GlyMetGlnAlaGly)”, the “First-Order Deamidation Halftimes of GlyXxxGlnYyyGly” value is given as 4400 days.
On the same count and under the same terms, the value for “GlyMetGlnArgGly (GMQRG; printed: GlyMetGlnArgGly)” was 5100 days; that for “GlyMetGlnAspGly (GMQDG; printed: GlyMetGlnAspGly)” was 6200 days; that for “GlyMetGlnCysGly (GMQCG; printed: GlyMetGlnCysGly)” was 900 days.
Still for that read-out and setting: the value for “GlyMetGlnGluGly (GMQEG; printed: GlyMetGlnGluGly)” was 5800 days; that for “GlyMetGlnGlyGly (GMQGG; printed: GlyMetGlnGlyGly)” was 600 days; that for “GlyMetGlnHisGly (GMQHG; printed: GlyMetGlnHisGly)” was 4400 days.
The same measure, in the same setting: the value for “GlyMetGlnIleGly (GMQIG; printed: GlyMetGlnIleGly)” was 5000 days.
Turning to “GlyMetGlnLeuGly (GMQLG; printed: GlyMetGlnLeuGly)”, the “First-Order Deamidation Halftimes of GlyXxxGlnYyyGly” value came out at 5000 days.
Still for that read-out and setting: the value for “GlyMetGlnLysGly (GMQKG; printed: GlyMetGlnLysGly)” was 4600 days.
For the substance “GlyMetGlnMetGly (GMQMG; printed: GlyMetGlnMetGly)”, the “First-Order Deamidation Halftimes of GlyXxxGlnYyyGly” value came to 3500 days.
Consider “GlyMetGlnPheGly (GMQFG; printed: GlyMetGlnPheGly)”, for which the “First-Order Deamidation Halftimes of GlyXxxGlnYyyGly” value is recorded as 6600 days.
The same measure, in the same setting: then “GlyMetGlnProGly (GMQPG; printed: GlyMetGlnProGly)”, with 7300 days; and “GlyMetGlnSerGly (GMQSG; printed: GlyMetGlnSerGly)”, with 4100 days.
Still for that read-out and setting: then “GlyMetGlnThrGly (GMQTG; printed: GlyMetGlnThrGly)”, with 3800 days.
Same read-out and setting: then “GlyMetGlnTrpGly (GMQWG; printed: GlyMetGlnTrpGly)”, with 9400 days; and “GlyMetGlnTyrGly (GMQYG; printed: GlyMetGlnTyrGly)”, with 8200 days.
Consider “GlyMetGlnValGly (GMQVG; printed: GlyMetGlnValGly)”, for which the “First-Order Deamidation Halftimes of GlyXxxGlnYyyGly” value came out at 5000 days.
With “GlyPheAsnAlaGly (GFNAG; printed: GlyPheAsnAlaGly)”, the “First-Order Deamidation Halftimes of GlyXxxAsnYyyGly” value worked out at 24.2 days.
In the case of GlyPheAsnAmCysGly, the “First-Order Deamidation Halftimes of GlyXxxAsnYyyGly” value is 29.8 days.
As for “GlyPheAsnArgGly (GFNRG; printed: GlyPheAsnArgGly)”, the “First-Order Deamidation Halftimes of GlyXxxAsnYyyGly” value is given as 61.2 days.
On to “GlyPheAsnAspGly (GFNDG; printed: GlyPheAsnAspGly)”, for which the “First-Order Deamidation Halftimes of GlyXxxAsnYyyGly” value worked out at 27.4 days.
With “GlyPheAsnCysGly (GFNCG; printed: GlyPheAsnCysGly)”, the “First-Order Deamidation Halftimes of GlyXxxAsnYyyGly” value is given as 46.5 days.
With “GlyPheAsnGluGly (GFNEG; printed: GlyPheAsnGluGly)”, the “First-Order Deamidation Halftimes of GlyXxxAsnYyyGly” value is reported as 62.4 days.
Still for that read-out and setting: then “GlyPheAsnGlyGly (GFNGG; printed: GlyPheAsnGlyGly)”, with 1.15 days.
Take “GlyPheAsnHisGly (GFNHG; printed: GlyPheAsnHisGly)”: the “First-Order Deamidation Halftimes of GlyXxxAsnYyyGly” value is listed as 10.2 days.
For the substance “GlyPheAsnIleGly (GFNIG; printed: GlyPheAsnIleGly)”, the “First-Order Deamidation Halftimes of GlyXxxAsnYyyGly” value stood at 287 days.
“GlyPheAsnLeuGly (GFNLG; printed: GlyPheAsnLeuGly)”: the “First-Order Deamidation Halftimes of GlyXxxAsnYyyGly” value is listed as 118 days.
With “GlyPheAsnLysGly (GFNKG; printed: GlyPheAsnLysGly)”, the “First-Order Deamidation Halftimes of GlyXxxAsnYyyGly” value is reported as 58.2 days.
The same measure, in the same setting: the value for “GlyPheAsnMetGly (GFNMG; printed: GlyPheAsnMetGly)” was 58.6 days; that for “GlyPheAsnPheGly (GFNFG; printed: GlyPheAsnPheGly)” was 69.5 days.
The same measure, in the same setting: then “GlyPheAsnProGly (GFNPG; printed: GlyPheAsnProGly)”, with 7990 days; and “GlyPheAsnSerGly (GFNSG; printed: GlyPheAsnSerGly)”, with 18.1 days.
